According to publication PMC7383237, “Diversification of DNA-Binding Specificity by Permissive and Specificity-Switching Mutations in the ParB/Noc Protein Family”:
Numbering of substitutions follows the chain as printed.

Experiments:
[1] = biological target: T1, ParB PtoN7 (QTAR) (Caulobacter crescentus, UniProt B8GW30 1-304, R173Q;G201R); assay: BLI; 1000 nM dimer; BLI: 100 mM Tris-HCl pH 7.4, 150 mM NaCl, 1 mM EDTA, 0.005% Tween 20; temperature not stated; biotinylated DNA on streptavidin sensor, protein typically 0-1000; conditions: protein: recombinant; tags: C-terminal His6; chain copies: 2; label: 5' biotin on strand 1; blunt
T1 sequence: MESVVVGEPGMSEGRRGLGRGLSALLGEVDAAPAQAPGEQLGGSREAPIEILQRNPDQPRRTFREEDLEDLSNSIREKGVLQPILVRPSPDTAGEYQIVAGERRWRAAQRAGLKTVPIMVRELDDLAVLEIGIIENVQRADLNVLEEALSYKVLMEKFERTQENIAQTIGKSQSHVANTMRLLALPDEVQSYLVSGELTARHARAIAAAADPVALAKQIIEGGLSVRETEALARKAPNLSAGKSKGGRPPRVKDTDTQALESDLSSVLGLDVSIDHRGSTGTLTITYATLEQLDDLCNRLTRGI

[2] = biological target: T2, ParB PtoN1 (QTAG) (Caulobacter crescentus, UniProt B8GW30 1-304, R173Q); assay: as above; conditions: protein: recombinant; tags: C-terminal His6; chain copies: 2; label: 5' biotin on strand 1; blunt
T2 sequence: T1 sequence with R201G

[3] = biological target: T3, ParB DBD (Caulobacter crescentus, UniProt B8GW30 126-243); assay: X-ray crystallography 2.4 A; BLI: 100 mM Tris-HCl pH 7.4, 150 mM NaCl, 1 mM EDTA, 0.005% Tween 20; temperature not stated; biotinylated DNA on streptavidin sensor, protein typically 0-1000; conditions: protein: recombinant; tags: C-terminal His6; chain copies: 2; blunt; palindrome, 2 strand copies
T3 sequence: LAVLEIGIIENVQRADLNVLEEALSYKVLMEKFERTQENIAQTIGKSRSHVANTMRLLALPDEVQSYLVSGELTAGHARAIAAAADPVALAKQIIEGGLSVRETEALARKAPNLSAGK

[4] = biological target: T4, ParB WT (RTAG) (Caulobacter crescentus, UniProt B8GW30 1-304); assay: BLI; BLI: 100 mM Tris-HCl pH 7.4, 150 mM NaCl, 1 mM EDTA, 0.005% Tween 20; temperature not stated; biotinylated DNA on streptavidin sensor, protein typically 0-1000; conditions: protein: recombinant; tags: C-terminal His6; chain copies: 2; label: 5' biotin on strand 1; blunt
T4 sequence: T1 sequence with Q173R, R201G

B1: site1 (dsDNA)
DNA 1: GGGATGTTTCTCGAGAAACA
DNA 2: TGTTTCTCGAGAAACATCCC
B1: no binding [1]; no binding [2].

B2: site8 (dsDNA)
DNA 1: GGGATTTTTCACGTGAAAAA
DNA 2: TTTTTCACGTGAAAAATCCC
B2: no binding [1]; no binding [2].

B3: site6 (dsDNA)
DNA 1: GGGATCTTTCGCGCGAAAGA
DNA 2: TCTTTCGCGCGAAAGATCCC
B3: no binding [1]; no binding [2].

B4: site12 (dsDNA)
DNA 1: GGGATATTTCACGTGAAATA
DNA 2: TATTTCACGTGAAATATCCC
B4: no binding [1]; no binding [2].

B5: parS 20-bp crystal duplex (dsDNA)
DNA 1: GATGTTTCACGTGAAACATC
DNA 2: GATGTTTCACGTGAAACATC
B5: binds [3].

B6: site7 (dsDNA)
DNA 1: GGGATCTTTCCCGGGAAAGA
DNA 2: TCTTTCCCGGGAAAGATCCC
B6: no binding [1]; no binding [2].

B7: site9 (dsDNA)
DNA 1: GGGATTTTTCTCGAGAAAAA
DNA 2: TTTTTCTCGAGAAAAATCCC
B7: no binding [1]; no binding [2].

B8: site10 (dsDNA)
DNA 1: GGGATTTTTCGCGCGAAAAA
DNA 2: TTTTTCGCGCGAAAAATCCC
B8: no binding [1]; no binding [2].

B9: site4 (dsDNA)
DNA 1: GGGATCTTTCACGTGAAAGA
DNA 2: TCTTTCACGTGAAAGATCCC
B9: no binding [1]; no binding [2].

B10: parS BLI duplex (dsDNA)
DNA 1: GGGATGTTTCACGTGAAACA
DNA 2: TGTTTCACGTGAAACATCCC
With B10 the Kd [4] was 11 ± 7 nM, the binding result [1] was “no binding” and the binding result [2] was “no binding”.

B11: site3 (dsDNA)
DNA 1: GGGATGTTTCCCGGGAAACA
DNA 2: TGTTTCCCGGGAAACATCCC
B11: no binding [1]; no binding [2].

B12: site11 (dsDNA)
DNA 1: GGGATTTTTCCCGGGAAAAA
DNA 2: TTTTTCCCGGGAAAAATCCC
B12: no binding [1]; no binding [2].

B13: site14 (dsDNA)
DNA 1: GGGATATTTCGCGCGAAATA
DNA 2: TATTTCGCGCGAAATATCCC
B13: no binding [1]; no binding [2].

B14: site2 (dsDNA)
DNA 1: GGGATGTTTCGCGCGAAACA
DNA 2: TGTTTCGCGCGAAACATCCC
B14: no binding [1]; no binding [2].

B15: site5 (dsDNA)
DNA 1: GGGATCTTTCTCGAGAAAGA
DNA 2: TCTTTCTCGAGAAAGATCCC
B15: no binding [1]; no binding [2].

B16: site13 (dsDNA)
DNA 1: GGGATATTTCTCGAGAAATA
DNA 2: TATTTCTCGAGAAATATCCC
B16: no binding [1]; no binding [2].

B17: NBS BLI duplex (dsDNA)
DNA 1: GGGATATTTCCCGGGAAATA
DNA 2: TATTTCCCGGGAAATATCCC
B17: no binding [1]; no binding [2].
